“Also recorded” adds a separate entry of the source. Positions of bridges follow the written chain, without caps; N, C: chain ends. No end group written: not given here.
Columns and labels:
[1] = target: T1, VEGFR (Homo sapiens, UniProt P35968); assay: VEGF inhibitory ability, luciferase assay in VEGFR/NFAT Reporter HEK293 cells; assay type: cell-based; conditions: for VEGF inhibitory activity (relative VEGF activity): 10 ng/mL VEGF
T1 construct: host or cells: VEGFR/NFAT Reporter HEK293 cells
Procedure: The VEGF inhibitory ability of the VEGFR_D2-PAS heterodimer peptide was evaluated by luciferase assay. 40,000 cell/well VEGFR/NFAT Reporter HEK293 cells (BPS Bioscience) were seeded and incubated overnight in a 5% CO2 incubator at 37° C. The cells were incubated overnight in Assay medium (MEM medium (Nacalai Tesque), 1×MEM Non-Essential Amino Acids Solution (Thermo Fisher Scientific), 1 mM Sodium Pyruvate (Nacalai Tesque), 1% Penicillin-Streptomycin (Sigma Aldrich), and 0.3% FBS (Thermo Fisher Scientific)) to starvation. […] The cells were stimulated by culturing in a 5% CO2 incubator at 37° C. for 4 hours.
One-Glo Luciferase Assay System (Promega) was used to detect the signal intensity. Medium supernatant in an amount of 50 μL was removed, 50 μL of One-Glo reagent was added, and the cells were lysed for 10 minutes at room temperature. The luminescence emitted from the cell lysate solution was detected with a Nivo plate reader (Perkin Elmer) to quantify the activation of the VEGFR-NFAT pathway, and the relative signal activity value for the sample without addition of evaluation compound was determined and used as relative receptor activity.
The VEGF inhibitory ability of the cell-free expressed VEGFR_D2-PAS heterodimer peptide was evaluated by luciferase assay. 40,000 cell/well VEGFR/NFAT Reporter HEK293 cells (BPS Bioscience) were seeded and incubated overnight in a 5% CO2 incubator at 37° C. The cells were incubated overnight in Assay medium (MEM medium (Nacalai Tesque), 1×MEM Non-Essential Amino Acids Solution (Thermo Fisher Scientific), 1 mM Sodium Pyruvate (Nacalai Tesque), 1% Penicillin-Streptomycin (Sigma Aldrich), and 0.3% FBS (Thermo Fisher Scientific)) to starvation. To the Assay medium, 100 μL of 10 ng/mL human recombinant VEGF (R&D Systems) was added, and further, MAET-VEGFR_D2-PAS16, MAET-VEGFR_D2-PAS49-b, MAET-VEGFR_D2-PAS100-b, or a cell-free expression solution containing MAET-VEGFR_D2-GS16, or a cell-free expression solution with unexpressed peptide was added at a predetermined dilution factor, and 100 μL of the Assay medium was added to the cells. The cells were stimulated by culturing in a 5% CO2 incubator at 37° C. for 4 hours.
The VEGF inhibitory ability of the VEGFR_D2-PAS heterodimer peptide linker variant was evaluated by luciferase assay. 40,000 cell/well VEGFR/NFAT Reporter HEK293 cells (BPS Bioscience) were seeded and incubated overnight in a 5% CO2 incubator at 37° C. The cells were incubated overnight in Assay medium (MEM medium (Nacalai Tesque), 1×MEM Non-Essential Amino Acids Solution (Thermo Fisher Scientific), 1 mM Sodium Pyruvate (Nacalai Tesque), 1% Penicillin-Streptomycin (Sigma Aldrich), and 0.3% FBS (Thermo Fisher Scientific)) to starvation. To the Assay medium, 10 ng/mL human recombinant VEGF (R&D Systems) was added, and further, a culture supernatant containing VEGFR_D2-PAS16, VEGFR_D2-PAS49, or VEGFR_D2-PAS100 at a predetermined concentration was added, and 100 μL of the Assay medium was added to the cells. The cells were stimulated by culturing in a 5% CO2 incubator at 37° C. for 4 hours. Note that VEGFR_D2-PAS16 was obtained according to the method described in Example 27.

[2] = target: T2, Met (Homo sapiens, UniProt P08581); assay: Met activation ability, SRE luciferase assay in HEK293E cells (HGF-Erk-SRE pathway); assay type: cell-based; conditions: for Met activation ability: Example 37, cell-free translation solution diluted, FIG. 69
T2 construct: endogenous in cells; host or cells: HEK293E
T2 sequence (P08581 25-1390): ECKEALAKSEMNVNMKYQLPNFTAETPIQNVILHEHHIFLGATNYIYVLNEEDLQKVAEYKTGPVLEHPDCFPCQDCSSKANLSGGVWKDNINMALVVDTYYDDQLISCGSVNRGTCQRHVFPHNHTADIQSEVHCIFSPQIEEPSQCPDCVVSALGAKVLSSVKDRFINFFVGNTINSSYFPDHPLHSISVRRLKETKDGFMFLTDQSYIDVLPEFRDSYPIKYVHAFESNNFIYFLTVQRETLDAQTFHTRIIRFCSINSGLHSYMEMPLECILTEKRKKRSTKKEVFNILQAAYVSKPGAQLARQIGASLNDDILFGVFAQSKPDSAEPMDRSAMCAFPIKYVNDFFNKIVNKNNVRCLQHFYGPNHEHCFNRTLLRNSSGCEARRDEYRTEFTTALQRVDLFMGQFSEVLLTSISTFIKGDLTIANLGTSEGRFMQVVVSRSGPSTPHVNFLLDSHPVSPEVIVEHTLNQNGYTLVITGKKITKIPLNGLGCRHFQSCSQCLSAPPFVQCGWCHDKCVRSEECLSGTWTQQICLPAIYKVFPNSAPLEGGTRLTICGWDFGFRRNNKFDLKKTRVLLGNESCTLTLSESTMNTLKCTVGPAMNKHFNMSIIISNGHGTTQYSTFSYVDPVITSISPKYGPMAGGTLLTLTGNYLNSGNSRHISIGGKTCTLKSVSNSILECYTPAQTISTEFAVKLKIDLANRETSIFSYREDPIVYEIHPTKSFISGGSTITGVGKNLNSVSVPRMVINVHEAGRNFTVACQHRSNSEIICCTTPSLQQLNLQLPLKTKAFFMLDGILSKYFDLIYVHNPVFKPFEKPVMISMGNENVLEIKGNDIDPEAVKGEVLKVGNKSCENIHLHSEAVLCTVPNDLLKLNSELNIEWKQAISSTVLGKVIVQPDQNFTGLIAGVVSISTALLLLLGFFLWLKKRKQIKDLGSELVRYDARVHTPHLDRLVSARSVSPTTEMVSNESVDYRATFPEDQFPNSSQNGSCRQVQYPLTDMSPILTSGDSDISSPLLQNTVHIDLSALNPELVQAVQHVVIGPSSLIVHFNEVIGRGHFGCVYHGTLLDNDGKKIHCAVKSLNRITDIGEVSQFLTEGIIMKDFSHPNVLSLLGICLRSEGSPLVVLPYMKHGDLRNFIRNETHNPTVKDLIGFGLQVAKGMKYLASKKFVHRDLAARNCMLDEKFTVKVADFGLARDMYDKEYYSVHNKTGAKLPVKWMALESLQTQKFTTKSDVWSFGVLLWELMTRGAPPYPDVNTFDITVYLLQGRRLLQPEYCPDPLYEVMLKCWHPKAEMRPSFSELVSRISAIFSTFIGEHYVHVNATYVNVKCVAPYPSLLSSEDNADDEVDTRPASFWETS
Procedure: (§1) The Met activation ability of the HGF-PAS dimer peptide was evaluated by luciferase assay. To 25 μL of Opti-MEM medium (Thermo Fisher Scientific), 0.6 μL of Attractene Transfection Reagent (QIAGEN) was added, and the mixture was incubated at room temperature for 5 minutes. To the above mixed solution, a mixed solution of 25 μL of Opti-MEM and 1 μL of SRE reporter vector (QIAGEN) was added, and the mixture was incubated at room temperature for 20 minutes. This mixed solution was added to a 96-well plate, over which 40,000 cell/well HEK293E cells were seeded and incubated overnight in a 5% CO2 incubator at 37° C. After transfection, all culture supernatant was removed, 100 μL of Opti-MEM medium (evaluation basal medium) containing 0.5% FBS (Thermo Fisher Scientific), 1% non-essential amino acid solution (Thermo Fisher Scientific), and penicillin-streptomycin (Nacalai Tesque) was added, and incubation was performed at 37° C. for 4 hours, and thereby the cells were starved.
To the evaluation basal medium, 0 to 200 ng/mL HGF was added, or 0 to 800 ng/mL AET-PAS-aMD4dY-PEG11, AET-PAS-aMD4-PEG11, or AET-PAS-aMD4-PEG3 was added, or a culture supernatant containing PAS-aMD4dY-PEG11, PAS-aMD4-PEG11, or PAS-aMD4-PEG3 was added so as to be diluted 10-fold with respect to the medium, and the evaluation basal medium was added in an amount of 100 μL to the cells. The cells were stimulated by culturing overnight in a 5% CO2 incubator at 37° C.
The signal intensities were detected using Dual-Luciferase Reporter Assay System (Promega). The medium supernatant in an amount of 100 μL was removed, 50 μL of Glo reagent was added, and the cells were lysed for 10 minutes at room temperature. The luminescence of Firefly luciferase emitted from the cell lysate solution was detected with a plate reader to quantify the activation of the HGF-Erk-SRE pathway. Subsequently, 50 μL of Glo & Stop reagent solution was added, and after 10 minutes, the luminescence of the internal standard Renilla luciferase was detected to quantify the number of cells. The signal activity of each sample was quantified as SRE activity=(Firefly luciferase luminescence intensity)/(Renilla luciferase luminescence intensity). The relative signal activity values for the samples without addition of the evaluation compound were determined and used as relative receptor activity.
as §1, with “peptide linker variant” for “peptide”, “0.6 L” for “0.6 μL”
To the evaluation basal medium, 0 to 100 ng/mL HGF was added, or a culture supernatant containing AET-aMD4dY-PAS8, AET-aMD4dY-PAS22 (the same molecule as AET-PAS-aMD4dY-PEG11), AET-aMD4dY-PAS49, AET-aMD4dY-PAS100, AET-aMD4dY-PAS200, AET-aMD4dY-GS15, or AET-aMD4dY-GS22 was added to the medium so as to be diluted at a predetermined ratio, and the evaluation basal medium was added in an amount of 100 μL to the cells. The cells were stimulated by culturing overnight in a 5% CO2 incubator at 37° C.
The Met activation ability of the stabilized HGF-PAS dimer peptide was evaluated by luciferase assay. […]

[3] = target: Met (HGF receptor) (UniProt P08581 25-1390, limits assumed); assay: cell-based or functional assay
Met (HGF receptor), sequence (P08581 25-1390 limits assumed): as the sequence (P08581 25-1390) above

T1 sequence (P35968 20-1356): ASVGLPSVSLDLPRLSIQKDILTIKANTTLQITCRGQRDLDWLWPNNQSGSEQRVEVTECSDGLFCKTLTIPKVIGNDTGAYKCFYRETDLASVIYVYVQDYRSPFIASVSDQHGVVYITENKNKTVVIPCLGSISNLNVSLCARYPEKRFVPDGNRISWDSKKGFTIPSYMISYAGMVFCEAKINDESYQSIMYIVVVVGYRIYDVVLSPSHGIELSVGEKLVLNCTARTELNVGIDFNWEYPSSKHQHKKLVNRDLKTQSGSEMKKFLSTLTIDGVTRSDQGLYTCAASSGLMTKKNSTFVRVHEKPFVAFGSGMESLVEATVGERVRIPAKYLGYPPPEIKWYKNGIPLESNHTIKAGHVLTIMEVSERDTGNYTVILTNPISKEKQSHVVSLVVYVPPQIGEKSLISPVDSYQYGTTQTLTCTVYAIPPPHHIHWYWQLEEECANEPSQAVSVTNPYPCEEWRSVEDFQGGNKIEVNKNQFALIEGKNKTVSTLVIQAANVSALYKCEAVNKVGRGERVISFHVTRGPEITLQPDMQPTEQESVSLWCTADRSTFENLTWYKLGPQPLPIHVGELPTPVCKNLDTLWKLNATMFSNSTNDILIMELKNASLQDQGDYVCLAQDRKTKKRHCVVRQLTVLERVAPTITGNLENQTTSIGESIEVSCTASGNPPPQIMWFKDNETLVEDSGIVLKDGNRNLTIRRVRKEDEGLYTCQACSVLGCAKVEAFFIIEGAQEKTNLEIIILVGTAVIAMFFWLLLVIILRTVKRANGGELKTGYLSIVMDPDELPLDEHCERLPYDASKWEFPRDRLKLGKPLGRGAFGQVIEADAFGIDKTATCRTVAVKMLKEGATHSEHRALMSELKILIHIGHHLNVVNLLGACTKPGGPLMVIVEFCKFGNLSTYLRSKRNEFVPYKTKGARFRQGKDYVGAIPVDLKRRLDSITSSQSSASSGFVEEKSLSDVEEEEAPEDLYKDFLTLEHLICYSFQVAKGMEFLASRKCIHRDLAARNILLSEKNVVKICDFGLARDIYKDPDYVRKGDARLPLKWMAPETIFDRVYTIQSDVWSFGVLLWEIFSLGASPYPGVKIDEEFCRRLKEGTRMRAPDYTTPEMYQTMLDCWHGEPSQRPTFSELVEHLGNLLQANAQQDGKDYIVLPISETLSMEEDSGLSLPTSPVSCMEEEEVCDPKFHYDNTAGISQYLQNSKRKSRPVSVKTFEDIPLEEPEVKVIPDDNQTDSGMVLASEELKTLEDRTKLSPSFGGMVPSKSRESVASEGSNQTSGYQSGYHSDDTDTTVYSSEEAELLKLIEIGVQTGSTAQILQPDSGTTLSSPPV

## AETAGPTWCEDDWYYCWLFGTGGGGSGGGGSGGGGSGVCWEDSWGGEVCWLFGT (disulfide 9-16, 39-49) [AET-VEGFR_D2-GS16]
[1]
  IC50: 2.93 nM

## MAETAGPTWCEDDWYYCWLFGTAAPAAPAPAAPAAPAPVCWEDSWGGEVCWLFGT (disulfide 10-17, 40-50) [MAET-VEGFR_D2-PAS16]
[1]; Example 39, cell-free expression solution, FIGS. 71 and 72
  VEGF inhibitory activity (relative VEGF activity): higher inhibitory activity than MAET-VEGFR_D2-PAS100-b; also recorded: higher inhibitory activity than MAET-VEGFR_D2-GS16

## AETAGPTWCEDDWYYCWLFGTAAPAAPAPAAPAAPAPVCWEDSWGGEVCWLFGT (disulfide 9-16, 39-49) [AET-VEGFR_D2-PAS16]
[1]
  IC50: 0.26 nM
[1]; Example 29, purified by HPLC, 4 hours, FIG. 47
  VEGF inhibitory activity (relative VEGF activity): higher inhibitory activity than the monomer peptides P3 and Pm4

## CRQFNRRTHEVWNLDC (disulfide 1-16) [aMD4dY, reference compound]
[2]; Example 43, FIG. 76
  signal activation ability, dimer versus monomer: showed no signal activation ability

## MAETCRQFNRRTHEVWNLDCGAAPAAPAPGCRQFNRRTHEVWNLDC (disulfide 5-20, 31-46) [MAET-aMD4dY-PAS8]
[2]
  Met activation ability: had Met activation ability

## MAETCRQFNRRTHEVWNLDCGAAPAAPAPAAPAAPAPAAPAAPGCRQFNRRTHEVWNLDC (disulfide 5-20, 45-60) [MAET-aMD4dY-PAS22]
[2]
  Met activation ability: had Met activation ability

## CRQFNRRTHEVWNLDCGAAPAAPAPAAPAAPAPAAPAAPGCRQFNRRTHEVWNLDC (disulfide 1-16, 41-56; also: PEG11) [PAS-aMD4dY-PEG11]
[2]; Example 6, AET form 0 to 800 ng/mL, PAS form culture supernatant diluted 10-fold
  maximum activity compared with HGF: comparable to 100 ng/mL HGF

B1: AET-aMD4dY-PAS8 (peptide)
peptide: AETCRQFNRRTHEVWNLDCGAAPAAPAPGCRQFNRRTHEVWNLDC
modifications: disulfide 4-19, 30-45
[3]
  Emax (%): 56.4%

B2: AET-aMD4dY-PAS200 (peptide)
peptide: AETCRQFNRRTHEVWNLDCGAAPAAPAPAAPAAPAPAAPAAPAPAAPAAPAPAAPAAPAPAAPAAPAPAAPAAPAPAAPAAPAPAAPAAPAPAAPAAPAPAAPAAPAPAAPAAPAPAAPAAPAPAAPAAPAPAAPAAPAPAAPAAPAPAAPAAPAPAAPAAPAPAAPAAPAPAAPAAPAPAAPAAPAPAAPAAPAPAAPAAPAPAAPAAPAPAAPAAPAPGCRQFNRRTHEVWNLDC
modifications: two disulfide bonds in the molecule
[3]
  Emax (%): 20.4%

B3: AET-PAS-aMD4dY-PEG11 (peptide)
peptide: AETCRQFNRRTHEVWNLDCGAAPAAPAPAAPAAPAPAAPAAPGCRQFNRRTHEVWNLDC
modifications: disulfide 4-19, 44-59; also: PEG11 in name, stated same as AET-aMD4dY-PAS22
[3]
  Emax (%): 100%

B4: AET-aMD4dY-PAS100 (peptide)
peptide: AETCRQFNRRTHEVWNLDCGAAPAAPAPAAPAAPAPAAPAAPAPAAPAAPAPAAPAAPAPAAPAAPAPAAPAAPAPAAPAAPAPAAPAAPAPAAPAAPAPAAPAAPAPAAPAAPAPAAPAGCRQFNRRTHEVWNLDC
modifications: two disulfide bonds in the molecule
[3]
  Emax (%): 47.2%

B5: AET-aMD4dY-GS15 (peptide)
peptide: AETCRQFNRRTHEVWNLDCGGGGGSGGGGSGGGGSGCRQFNRRTHEVWNLDC
modifications: disulfide 4-19, 37-52
[3]
  Emax (%): 45.8%

B6: MAETCYRQFNRRTHEVWNLDCGAAPAAPAPAAPAAPAPAAPAAPGCRQFNRRTHEVWNLDC (peptide)
chain: MAETCYRQFNRRTHEVWNLDCGAAPAAPAPAAPAAPAPAAPAAPGCRQFNRRTHEVWNLDC
modifications: disulfide 5-21, 46-61
[2]
  Met activation ability: had Met activation ability

B7: AET-aMD4dY-PAS49 (peptide)
peptide: AETCRQFNRRTHEVWNLDCGAAPAAPAPAAPAAPAPAAPAAPAPAAPAAPAPAAPAAPAPAAPAAPAPAGCRQFNRRTHEVWNLDC
modifications: two disulfide bonds in the molecule
[3]
  Emax (%): 82.8%

B8: AET-aMD4dY-GS22 (peptide)
peptide: AETCRQFNRRTHEVWNLDCGGGGGSGGGGSGGGGSGGGGSGGGCRQFNRRTHEVWNLDC
modifications: disulfide 4-19, 44-59
[3]
  Emax (%): 32.3%

B9: AETCRQFNRRTHEVWNLDCGAAPAAPAPAAPAAPAPAAPAAPGCRQFNRRTHEVWNLDCGAAPAAPAPAAPAAPAPAAPAAPGCRQFNRRTHEVWNLDC (peptide)
chain: AETCRQFNRRTHEVWNLDCGAAPAAPAPAAPAAPAPAAPAAPGCRQFNRRTHEVWNLDCGAAPAAPAPAAPAAPAPAAPAAPGCRQFNRRTHEVWNLDC
modifications: AET-aMD4dY-PAS22-Trimer; DISULFID (4)..(19) Disulfid bridge between Cys-4 and Cys-19; DISULFID (44)..(59) Disulfid bridge between Cys-44 and Cys-59; DISULFID (84)..(99) Disulfid bridge between Cys-84 and Cys-99
[2]; Example 42, culture supernatant diluted, FIG. 75
  signal activation ability, trimer versus dimer: signal activation ability similar to the dimer peptide
